According to the supplement of paper PMC10065799, “High-throughput profiling of sequence recognition by tyrosine kinases and SH2 domains using bacterial peptide display” (eLife, 2023):

Key:
[1] = tested on: Fer (mouse); test: phosphorylation enrichment, bacterial display (enrichment ratio); higher = better substrate or ligand; peptides without Tyr show the background
[2] = tested on: AncSZ; test: as above
[3] = molecular target: Hck (UniProt P08631); test: as above
[4] = molecular target: EPHB1 (UniProt P54762); test: as above
Chain of EPHB1 (P54762 whole entry, looked up): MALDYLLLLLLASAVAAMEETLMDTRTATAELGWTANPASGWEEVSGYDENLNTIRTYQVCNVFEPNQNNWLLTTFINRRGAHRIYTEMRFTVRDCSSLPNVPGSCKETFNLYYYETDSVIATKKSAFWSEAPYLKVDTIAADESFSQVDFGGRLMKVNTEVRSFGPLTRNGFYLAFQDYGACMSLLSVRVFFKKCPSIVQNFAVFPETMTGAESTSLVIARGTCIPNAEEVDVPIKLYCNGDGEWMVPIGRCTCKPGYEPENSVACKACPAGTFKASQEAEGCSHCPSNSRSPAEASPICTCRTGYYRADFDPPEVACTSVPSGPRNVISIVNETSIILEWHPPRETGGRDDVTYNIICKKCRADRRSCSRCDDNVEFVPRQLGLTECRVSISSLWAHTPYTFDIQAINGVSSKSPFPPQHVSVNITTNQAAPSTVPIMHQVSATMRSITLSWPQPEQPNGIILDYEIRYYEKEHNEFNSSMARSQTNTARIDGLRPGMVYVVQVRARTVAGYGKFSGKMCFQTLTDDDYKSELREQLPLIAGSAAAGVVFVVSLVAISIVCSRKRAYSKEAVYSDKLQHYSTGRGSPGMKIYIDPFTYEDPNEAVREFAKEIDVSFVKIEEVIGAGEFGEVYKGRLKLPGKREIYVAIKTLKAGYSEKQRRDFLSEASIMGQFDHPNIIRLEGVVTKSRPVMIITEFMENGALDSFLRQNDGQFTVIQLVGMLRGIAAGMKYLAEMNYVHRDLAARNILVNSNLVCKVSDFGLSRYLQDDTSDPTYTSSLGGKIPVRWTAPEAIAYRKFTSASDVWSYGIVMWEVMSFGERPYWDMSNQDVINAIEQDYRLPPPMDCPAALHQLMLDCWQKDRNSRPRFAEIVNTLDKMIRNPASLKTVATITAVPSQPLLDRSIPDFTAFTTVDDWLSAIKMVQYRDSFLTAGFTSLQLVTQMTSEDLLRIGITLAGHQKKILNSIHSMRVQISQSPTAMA

[5] = molecular target: FGFR1 (UniProt P11362); test: as above
[6] = tested on: c-Src; test: as above
[7] = molecular target: Fyn (UniProt P06241); test: as above
[8] = molecular target: Fes (UniProt P07332); test: as above
Chain of Fes (P07332 whole entry, looked up): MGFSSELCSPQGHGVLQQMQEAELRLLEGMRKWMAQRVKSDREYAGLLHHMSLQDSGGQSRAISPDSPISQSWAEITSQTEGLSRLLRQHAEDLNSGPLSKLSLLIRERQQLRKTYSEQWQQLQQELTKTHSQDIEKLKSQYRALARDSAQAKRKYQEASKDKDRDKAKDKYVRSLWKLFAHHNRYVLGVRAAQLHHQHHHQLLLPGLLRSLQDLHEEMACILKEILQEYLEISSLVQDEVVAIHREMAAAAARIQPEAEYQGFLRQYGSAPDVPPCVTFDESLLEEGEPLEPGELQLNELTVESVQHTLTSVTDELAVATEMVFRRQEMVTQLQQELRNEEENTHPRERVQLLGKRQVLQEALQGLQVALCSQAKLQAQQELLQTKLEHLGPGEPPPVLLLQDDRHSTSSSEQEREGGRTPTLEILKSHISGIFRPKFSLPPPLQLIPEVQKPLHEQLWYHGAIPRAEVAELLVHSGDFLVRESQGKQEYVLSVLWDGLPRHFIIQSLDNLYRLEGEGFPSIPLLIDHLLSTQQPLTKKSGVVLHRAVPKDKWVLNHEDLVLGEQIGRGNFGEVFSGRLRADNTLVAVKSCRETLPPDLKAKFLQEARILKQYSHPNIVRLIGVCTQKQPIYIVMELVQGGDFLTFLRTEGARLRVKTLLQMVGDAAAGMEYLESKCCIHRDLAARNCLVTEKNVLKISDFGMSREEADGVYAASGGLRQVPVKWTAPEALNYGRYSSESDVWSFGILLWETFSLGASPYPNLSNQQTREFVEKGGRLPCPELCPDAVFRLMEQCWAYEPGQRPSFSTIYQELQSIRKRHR

[9] = molecular target: FGFR3 (UniProt P22607); test: as above
[10] = molecular target: Jak2 (UniProt O60674); test: as above
Chain of Jak2 (O60674 whole entry, looked up): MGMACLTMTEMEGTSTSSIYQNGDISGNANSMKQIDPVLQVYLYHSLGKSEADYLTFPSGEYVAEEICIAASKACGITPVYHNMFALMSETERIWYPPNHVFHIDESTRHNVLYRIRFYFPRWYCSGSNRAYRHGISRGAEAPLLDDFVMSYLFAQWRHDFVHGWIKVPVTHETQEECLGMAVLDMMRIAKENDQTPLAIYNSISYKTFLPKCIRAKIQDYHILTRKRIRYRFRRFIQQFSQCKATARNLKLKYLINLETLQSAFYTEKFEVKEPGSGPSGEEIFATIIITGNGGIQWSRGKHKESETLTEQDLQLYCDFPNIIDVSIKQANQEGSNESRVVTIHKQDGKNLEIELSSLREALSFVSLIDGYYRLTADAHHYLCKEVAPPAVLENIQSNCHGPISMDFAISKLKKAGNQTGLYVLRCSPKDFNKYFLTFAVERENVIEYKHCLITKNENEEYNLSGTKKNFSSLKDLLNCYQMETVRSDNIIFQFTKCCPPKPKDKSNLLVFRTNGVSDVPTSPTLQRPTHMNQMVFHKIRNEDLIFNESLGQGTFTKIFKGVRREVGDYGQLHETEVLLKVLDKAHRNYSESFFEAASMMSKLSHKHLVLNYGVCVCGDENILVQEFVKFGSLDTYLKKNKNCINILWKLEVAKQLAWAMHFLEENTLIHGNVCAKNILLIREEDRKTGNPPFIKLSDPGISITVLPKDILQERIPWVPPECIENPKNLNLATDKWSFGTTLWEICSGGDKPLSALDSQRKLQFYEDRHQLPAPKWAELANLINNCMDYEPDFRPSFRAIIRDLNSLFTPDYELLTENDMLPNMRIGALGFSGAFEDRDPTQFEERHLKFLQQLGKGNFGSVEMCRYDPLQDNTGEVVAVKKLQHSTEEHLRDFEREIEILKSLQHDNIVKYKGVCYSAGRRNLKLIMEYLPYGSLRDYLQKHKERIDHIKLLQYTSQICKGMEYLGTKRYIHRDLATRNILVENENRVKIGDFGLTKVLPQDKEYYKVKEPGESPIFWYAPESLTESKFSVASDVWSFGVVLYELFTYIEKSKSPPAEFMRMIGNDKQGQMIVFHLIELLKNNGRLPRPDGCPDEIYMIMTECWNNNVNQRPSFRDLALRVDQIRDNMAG

[11] = molecular target: MERTK (UniProt Q12866); test: as above
Chain of MERTK (Q12866 whole entry, looked up): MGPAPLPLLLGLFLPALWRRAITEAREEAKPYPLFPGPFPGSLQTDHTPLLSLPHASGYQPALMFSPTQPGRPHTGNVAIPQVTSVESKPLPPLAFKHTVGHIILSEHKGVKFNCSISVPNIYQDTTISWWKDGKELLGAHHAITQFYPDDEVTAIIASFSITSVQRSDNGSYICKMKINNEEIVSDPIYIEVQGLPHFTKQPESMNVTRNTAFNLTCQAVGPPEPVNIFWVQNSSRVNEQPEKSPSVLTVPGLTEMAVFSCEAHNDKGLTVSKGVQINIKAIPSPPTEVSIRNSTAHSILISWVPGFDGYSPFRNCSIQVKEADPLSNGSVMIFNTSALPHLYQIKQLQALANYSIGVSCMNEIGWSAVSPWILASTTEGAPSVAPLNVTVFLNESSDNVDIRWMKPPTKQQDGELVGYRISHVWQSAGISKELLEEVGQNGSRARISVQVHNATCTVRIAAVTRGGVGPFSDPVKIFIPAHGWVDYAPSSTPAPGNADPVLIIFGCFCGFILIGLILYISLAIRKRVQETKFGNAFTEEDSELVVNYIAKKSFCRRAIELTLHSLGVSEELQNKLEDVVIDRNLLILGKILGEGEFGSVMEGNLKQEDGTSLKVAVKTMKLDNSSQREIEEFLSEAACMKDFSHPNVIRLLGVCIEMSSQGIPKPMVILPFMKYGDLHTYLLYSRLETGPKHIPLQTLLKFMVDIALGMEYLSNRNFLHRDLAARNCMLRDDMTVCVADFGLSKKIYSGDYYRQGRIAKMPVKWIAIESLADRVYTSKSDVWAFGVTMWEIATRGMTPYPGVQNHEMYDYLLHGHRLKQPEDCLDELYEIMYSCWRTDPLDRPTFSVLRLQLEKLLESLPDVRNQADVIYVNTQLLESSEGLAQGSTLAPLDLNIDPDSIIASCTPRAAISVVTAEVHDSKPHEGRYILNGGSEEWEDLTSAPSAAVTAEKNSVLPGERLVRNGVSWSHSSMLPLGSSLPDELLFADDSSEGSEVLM

[12] = tested on: c-Abl (mouse); test: as above
[13] = molecular target: EPHB2 (UniProt P29323); test: as above
[14] = molecular target: c-Src SH2; test: SH2 binding enrichment of the phosphorylated peptide, bacterial display (enrichment ratio); higher = better substrate or ligand; peptides without Tyr show the background
[15] = molecular target: SHP2-C SH2; test: as above
[16] = molecular target: Grb2 SH2 (UniProt P62993); test: as above
Chain of Grb2 SH2 (P62993 whole entry, looked up, the tested form may be a part): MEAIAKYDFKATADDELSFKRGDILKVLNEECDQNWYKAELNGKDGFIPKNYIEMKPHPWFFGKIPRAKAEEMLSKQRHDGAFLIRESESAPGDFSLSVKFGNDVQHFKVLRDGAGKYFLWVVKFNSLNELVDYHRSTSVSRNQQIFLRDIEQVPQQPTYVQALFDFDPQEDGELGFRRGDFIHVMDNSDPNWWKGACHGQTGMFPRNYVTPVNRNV
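For SH2 binding enrichment of the phosphorylated peptide, bacterial display in this document: peptide library displayed on the E. coli surface as eCPX fusions, selected cells deep-sequenced, score is each peptide's frequency after selection divided by its frequency in the input.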
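For phosphorylation enrichment, bacterial display in this document: 11-residue human phosphosite peptides and single-mutation variants displayed on the E. coli surface, counted by deep sequencing, each peptide's frequency after selection divided by its frequency in the unselected input library; frequency after pTyr selection over input frequency; kinase dosed for 20-30% of maximal phosphorylation in three min.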

Chain of Hck (P08631 whole entry, looked up): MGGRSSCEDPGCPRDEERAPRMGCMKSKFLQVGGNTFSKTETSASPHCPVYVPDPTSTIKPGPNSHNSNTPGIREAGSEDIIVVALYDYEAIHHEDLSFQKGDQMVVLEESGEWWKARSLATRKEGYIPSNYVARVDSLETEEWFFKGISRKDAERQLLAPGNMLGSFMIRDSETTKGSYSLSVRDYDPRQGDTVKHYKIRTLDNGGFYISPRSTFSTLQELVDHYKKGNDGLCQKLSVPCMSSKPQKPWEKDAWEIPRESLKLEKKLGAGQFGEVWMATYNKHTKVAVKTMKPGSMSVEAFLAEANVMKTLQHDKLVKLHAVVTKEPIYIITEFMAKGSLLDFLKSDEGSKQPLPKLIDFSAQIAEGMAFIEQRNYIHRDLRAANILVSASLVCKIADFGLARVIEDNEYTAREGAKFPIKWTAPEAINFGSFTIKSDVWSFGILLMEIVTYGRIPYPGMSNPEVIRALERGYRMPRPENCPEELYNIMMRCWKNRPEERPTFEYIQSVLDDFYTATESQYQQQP

| Sequence | phosphorylation enrichment [1] | phosphorylation enrichment [2] | phosphorylation enrichment [3] | phosphorylation enrichment [4] | phosphorylation enrichment [5] | phosphorylation enrichment [6] | phosphorylation enrichment [7] | phosphorylation enrichment [8] | phosphorylation enrichment [9] | phosphorylation enrichment [10] | phosphorylation enrichment [11] | phosphorylation enrichment [12] | phosphorylation enrichment [13] | SH2 binding enrichment [14] | SH2 binding enrichment [15] | SH2 binding enrichment [16] |
| --- | --- | --- | --- | --- | --- | --- | --- | --- | --- | --- | --- | --- | --- | --- | --- | --- |
| GRTNICKNKKD [SLC26A3_Y520_Y520C] | 0.448 | 0.631 | 0.482 | 0.462 | 0.471 | 0.437 | 0.331 | 0.973 | 0.911 | 1.16 | 0.366 | 1.39 | 0.447 | 1.43 | 1.4 | 1.79 |
| QDRTFYERVRT [SPEN_Y633_S635R_YF] | 3.63 | 0.583 | 1.2 | 0.416 | 0.529 | 0.402 | 0.403 | 0.591 | 0.441 | 0.509 | 0.539 | 0.582 | 0.42 | 2.36 | 4.46 | 0.603 |
| KAALSYVSEIG [BPIFB2_Y36] | 0.387 | 0.555 | 0.476 | 0.352 | 0.456 | 0.372 | 0.364 | 0.636 | 0.558 | 0.668 | 0.326 | 0.453 | 0.385 | 0.457 | 0.58 | 0.914 |
| AVVEPYNSILT [TUBA1A_Y185] | 0.377 | 0.686 | 0.43 | 0.489 | 0.438 | 0.453 | 0.434 | 0.83 | 0.496 | 0.802 | 0.415 | 0.534 | 0.365 | 3.31 | 0.899 | 0.866 |
| EYGRRYGFSCQ [CCDC93_Y209_R213C] | 0.526 | 0.931 | 0.617 | 0.59 | 0.526 | 0.483 | 0.53 | 1.12 | 0.696 | 1.2 | 0.476 | 0.881 | 0.594 | 0.418 | 0.492 | 0.725 |
| MRNDLYQTPLH [NFKB1_Y582] | 4.12 | 1.69 | 4.21 | 1.19 | 0.454 | 1.94 | 1.8 | 0.845 | 0.57 | 0.693 | 2.62 | 5.88 | 2.44 | 0.381 | 0.55 | 0.697 |
| GLRSYYETSKM [MAGED2_Y449] | 0.465 | 0.592 | 0.656 | 0.475 | 1.44 | 0.591 | 0.417 | 0.762 | 1.13 | 0.784 | 0.546 | 0.534 | 0.584 | 0.842 | 0.638 | 0.839 |
| RPYSPYIIRGM [LRP5_Y1531_R1529S] | 1.75 | 0.886 | 0.642 | 0.59 | 0.399 | 1.07 | 0.848 | 0.816 | 0.509 | 0.508 | 0.438 | 0.681 | 0.575 | 1.08 | 0.953 | 1.16 |
| DTDSSYCIPTA [GAB1_Y373] | 0.519 | 1.99 | 0.578 | 0.692 | 0.592 | 0.497 | 0.518 | 1.18 | 0.65 | 1.07 | 1.01 | 0.73 | 0.598 | 0.741 | 0.854 | 0.95 |
| DLEKTYNTYRS [B4GALNT2_Y538_A533D] | 0.401 | 0.848 | 0.761 | 0.382 | 0.554 | 1.03 | 0.845 | 0.788 | 0.703 | 0.823 | 0.424 | 0.441 | 0.509 | 0.43 | 0.511 | 0.654 |
| FFRCHYPLTTL [TNS4_Y644_R642C] | 0.39 | 0.914 | 0.48 | 0.509 | 0.463 | 0.43 | 0.374 | 1.01 | 0.696 | 0.79 | 0.4 | 0.595 | 0.512 | 0.738 | 1.03 | 0.907 |
| CPFNLYAEQFS [HGD_Y40_L44F_YF] | 0.923 | 1.45 | 1.08 | 2.19 | 0.747 | 1.49 | 0.834 | 1.54 | 0.847 | 1.34 | 1.6 | 1.16 | 1.29 | 0.66 | 0.519 | 0.942 |
| QSPQLYKQMCI [DARS1_Y253] | 0.673 | 0.881 | 0.634 | 0.836 | 0.461 | 0.485 | 0.796 | 0.896 | 0.573 | 0.917 | 0.603 | 0.932 | 0.559 | 0.638 | 0.904 | 0.904 |
| EYQKKYSDADI [CKAP5_Y1860_K1857Q] | 0.597 | 0.913 | 0.383 | 0.491 | 0.46 | 0.45 | 0.37 | 0.998 | 0.589 | 0.841 | 0.432 | 0.706 | 0.481 | 0.473 | 0.808 | 1 |
| PKKKQYTSIHH [APP_Y728_L723P] | 0.595 | 0.646 | 0.755 | 0.441 | 0.71 | 0.457 | 0.757 | 0.849 | 0.928 | 0.85 | 0.656 | 0.617 | 0.646 | 0.936 | 0.946 | 1.01 |
